# Source: patent US20250312499A1, “KISSPEPTIN RECEPTOR (KISS1R) TARGETED THERAPEUTICS AND USES THEREOF” (priority 2024, published 2025)
# Numbered stars: 1 amine (or outer) side, 2 acyl side, 3 side chain; on linkers, the order of the positions; unused ones are H or OH. Square brackets hold non-standard residues; d marks the D form. Ends that are not written are not given here. * marks the point of attachment. X2 = 4‑amino‑1‑((3-fluoro-4-methylbenzyl)glycyl)piperidine‑4‑carboxylic acid, Cc1ccc(CN(CC(=O)N2CCC(N[*:1])(C(=O)[*:2])CC2)[*:3])cc1F; Apc(4-OMe) = 4-aminopiperidine-4-carboxylic acid residue N1-acylated by a methoxy-bearing benzylglycyl; DOTA = O=C(O)CN1CCN(CC(=O)O)CCN(CC(=O)*)CCN(CC(=O)O)CC1; Api(1-amidino) = N=C(N)N1CCC(N)(C(=O)O)CC1; d(γGlu) = O=C(O)[C@@H](CCC(=O)[*:2])N[*:1]; Phe(3-F) = N[C@@H](Cc1cccc(F)c1)C(=O)O; εLys = N[C@@H](CCCCN[*:1])C(=O)[*:2]; Adipoyl = O=C(CCCCC(=O)[*:2])[*:1]; 4Pal = N[C@@H](Cc1ccncc1)C(=O)O; d4Pal = N[C@H](Cc1ccncc1)C(=O)O; 4Amb = NCc1ccc(C(=O)O)cc1; Octanoyl = CCCCCCCC(=O)*; APM = not defined here; Ahx = NCCCCCC(=O)O; azaGly = NNC(=O)O
# B1: Compound 169 (peptide)
# peptide: {DOTA-Ahx}-NT[Phe(3-F)][azaGly]L[X2][4Pal]-NH2
# SMILES: Cc1ccc(CNCC(=O)N2CCC(NC(=O)[C@H](CC(C)C)NC(=O)NNC(=O)[C@H](Cc3cccc(F)c3)NC(=O)[C@@H](NC(=O)[C@H](CC(N)=O)NC(=O)CCCCCNC(=O)CN3CCN(CC(=O)O)CCN(CC(=O)O)CCN(CC(=O)O)CC3)[C@@H](C)O)(C(=O)N[C@@H](Cc3ccncc3)C(N)=O)CC2)cc1F
# B2: Compound 149 (peptide)
# peptide: {DOTA-4Amb}-GY[Ahx][dY][dW]NTF[azaGly]L[X2]W-NH2
# SMILES: Cc1ccc(CNCC(=O)N2CCC(NC(=O)[C@H](CC(C)C)NC(=O)NNC(=O)[C@H](Cc3ccccc3)NC(=O)[C@@H](NC(=O)[C@H](CC(N)=O)NC(=O)[C@@H](Cc3c[nH]c4ccccc34)NC(=O)[C@@H](Cc3ccc(O)cc3)NC(=O)CCCCCNC(=O)[C@H](Cc3ccc(O)cc3)NC(=O)CNC(=O)c3ccc(CNC(=O)CN4CCN(CC(=O)O)CCN(CC(=O)O)CCN(CC(=O)O)CC4)cc3)[C@@H](C)O)(C(=O)N[C@@H](Cc3c[nH]c4ccccc34)C(N)=O)CC2)cc1F
# B3: Compound 205 (peptide)
# peptide: {DOTA-4Amb}-NTF[azaGly]L[X2]Y-NH2
# SMILES: Cc1ccc(CNCC(=O)N2CCC(NC(=O)[C@H](CC(C)C)NC(=O)NNC(=O)[C@H](Cc3ccccc3)NC(=O)[C@@H](NC(=O)[C@H](CC(N)=O)NC(=O)c3ccc(CNC(=O)CN4CCN(CC(=O)O)CCN(CC(=O)O)CCN(CC(=O)O)CC4)cc3)[C@@H](C)O)(C(=O)N[C@@H](Cc3ccc(O)cc3)C(N)=O)CC2)cc1F
# B4: Compound 235 (peptide)
# peptide: {DOTA-Ahx}-NTF[azaGly]L[Apc(4-OMe)]F-NH2
# B5: Compound 156 (peptide)
# peptide: {DOTA}-[d(γGlu)]F[azaGly]L[X2]W-NH2
# SMILES: Cc1ccc(CNCC(=O)N2CCC(NC(=O)[C@H](CC(C)C)NC(=O)NNC(=O)[C@H](Cc3ccccc3)NC(=O)CC[C@@H](NC(=O)CN3CCN(CC(=O)O)CCN(CC(=O)O)CCN(CC(=O)O)CC3)C(=O)O)(C(=O)N[C@@H](Cc3c[nH]c4ccccc34)C(N)=O)CC2)cc1F
# B6: Compound 197 (peptide)
# peptide: {3‑(2-(2-methoxyethoxy)ethoxy)propanoic acid}-[dY]K(DOTA)NTF[azaGly]L[Api(1-amidino)]W-NH2
# B7: Compound 181 (peptide)
# peptide: Octanoyl-[dY]K(DOTA)NTF[azaGly]L[X2]W-NH2
# SMILES: CCCCCCCC(=O)N[C@H](Cc1ccc(O)cc1)C(=O)N[C@@H](CCCCNC(=O)CN1CCN(CC(=O)O)CCN(CC(=O)O)CCN(CC(=O)O)CC1)C(=O)N[C@@H](CC(N)=O)C(=O)N[C@H](C(=O)N[C@@H](Cc1ccccc1)C(=O)NNC(=O)N[C@@H](CC(C)C)C(=O)NC1(C(=O)N[C@@H](Cc2c[nH]c3ccccc23)C(N)=O)CCN(C(=O)CNCc2ccc(C)c(F)c2)CC1)[C@@H](C)O
# B8: Compound 206 (peptide)
# peptide: {DOTA-4Amb}-[dE]NTF[azaGly]L[X2]Y-NH2
# SMILES: Cc1ccc(CNCC(=O)N2CCC(NC(=O)[C@H](CC(C)C)NC(=O)NNC(=O)[C@H](Cc3ccccc3)NC(=O)[C@@H](NC(=O)[C@H](CC(N)=O)NC(=O)[C@@H](CCC(=O)O)NC(=O)c3ccc(CNC(=O)CN4CCN(CC(=O)O)CCN(CC(=O)O)CCN(CC(=O)O)CC4)cc3)[C@@H](C)O)(C(=O)N[C@@H](Cc3ccc(O)cc3)C(N)=O)CC2)cc1F
# B9: Compound 233 (peptide)
# peptide: {DOTA-APM}-TF[azaGly]L[X2]W-NH2
# modifications: reading uncertain
# B10: Compound 213 (peptide)
# peptide: {DOTA}-GY[4Amb]NTF[azaGly]L[X2]W-NH2
# SMILES: Cc1ccc(CNCC(=O)N2CCC(NC(=O)[C@H](CC(C)C)NC(=O)NNC(=O)[C@H](Cc3ccccc3)NC(=O)[C@@H](NC(=O)[C@H](CC(N)=O)NC(=O)c3ccc(CNC(=O)[C@H](Cc4ccc(O)cc4)NC(=O)CNC(=O)CN4CCN(CC(=O)O)CCN(CC(=O)O)CCN(CC(=O)O)CC4)cc3)[C@@H](C)O)(C(=O)N[C@@H](Cc3c[nH]c4ccccc34)C(N)=O)CC2)cc1F
# B11: Compound 232 (peptide)
# peptide: {DOTA-4Amb}-[D‑3‑aminopentanedioic acid]NT[Phe(3-F)][azaGly]L[X2][4Pal]-NH2
# B12: Compound 234 (peptide)
# peptide: {DOTA-APM}-ETF[azaGly]L[X2]W-NH2
# modifications: reading uncertain
# B13: Compound 170 (peptide)
# peptide: {2,2',2''‑(10-(2-((((1s,4s)-4-carboxycyclohexyl)methyl)amino)-2-oxoethyl)-1,4,7,10-tetraazacyclododecane-1,4,7-triyl)triacetic acid}-ENT[Phe(3-F)][azaGly]L[X2][4Pal]-NH2
# B14: Compound 159 (peptide)
# peptide: {DOTA-APM}-ENT[Phe(3-F)][azaGly]L[X2]W-NH2
# modifications: reading uncertain
# B15: Compound 192 (peptide)
# peptide: {DOTA-trans‑4‑(aminomethyl)cyclohexane‑1‑carboxylic acid}-F[azaGly]L[X2]W-NH2
# B16: Compound 164 (peptide)
# peptide: {DOTA-2‑(4-aminopiperidin-1-yl)acetyl}-KNT[Phe(3-F)][azaGly]L[X2]W-NH2
# B17: Compound 161 (peptide)
# peptide: {DOTA-(1r,4r)‑4‑(aminomethyl)cyclohexane‑1‑carbonyl}-[dE]NT[Phe(3-F)][azaGly]L[X2]W-NH2
# B18: Compound 167 (peptide)
# peptide: NTF[azaGly]L[X2]W-NH2
# modifications: not fully specified (N-terminus)
# B19: Compound 151 (peptide)
# peptide: {DOTA}-GY[dW]NTF[azaGly]L[X2]W-NH2
# SMILES: Cc1ccc(CNCC(=O)N2CCC(NC(=O)[C@H](CC(C)C)NC(=O)NNC(=O)[C@H](Cc3ccccc3)NC(=O)[C@@H](NC(=O)[C@H](CC(N)=O)NC(=O)[C@@H](Cc3c[nH]c4ccccc34)NC(=O)[C@H](Cc3ccc(O)cc3)NC(=O)CNC(=O)CN3CCN(CC(=O)O)CCN(CC(=O)O)CCN(CC(=O)O)CC3)[C@@H](C)O)(C(=O)N[C@@H](Cc3c[nH]c4ccccc34)C(N)=O)CC2)cc1F
# B20: Compound 196 (peptide)
# peptide: {3‑(2-(2-(3-(4-iodophenyl)propanamido)ethoxy)ethoxy)propanoic acid}-[dY]K(DOTA)NTF[azaGly]L[Api(1-amidino)]W-NH2
# B21: Compound 158 (peptide)
# peptide: {DOTA-APM}-NTF[azaGly]L[X2]W-NH2
# modifications: reading uncertain
# B22: Compound 182 (peptide)
# peptide: {Me‑PEG25‑C(:O)}-[dY]K(DOTA)NTF[azaGly]L[Api(1-amidino)]W-NH2
# B23: Compound 193 (peptide)
# peptide: {DOTA}-G[dY][d4Pal]NTF[azaGly]L[X2]Y-NH2
# SMILES: Cc1ccc(CNCC(=O)N2CCC(NC(=O)[C@H](CC(C)C)NC(=O)NNC(=O)[C@H](Cc3ccccc3)NC(=O)[C@@H](NC(=O)[C@H](CC(N)=O)NC(=O)[C@@H](Cc3ccncc3)NC(=O)[C@@H](Cc3ccc(O)cc3)NC(=O)CNC(=O)CN3CCN(CC(=O)O)CCN(CC(=O)O)CCN(CC(=O)O)CC3)[C@@H](C)O)(C(=O)N[C@@H](Cc3ccc(O)cc3)C(N)=O)CC2)cc1F
# B24: Compound 168 (peptide)
# peptide: {DOTA-4Amb-Met-Trp-εLys-Adipoyl}-NTF[azaGly]L[X2]W-NH2
# B25: Compound 195 (peptide)
# peptide: {3‑(2-(2-(3-(p-tolyl)propanamido)ethoxy)ethoxy)propanoic acid}-[dY]K(DOTA)NTF[azaGly]L[Api(1-amidino)]W-NH2
# B26: Compound 160 (peptide)
# peptide: {DOTA-(1r,4r)‑4‑(aminomethyl)cyclohexane‑1‑carbonyl}-ENT[Phe(3-F)][azaGly]L[X2]W-NH2
# B27: Compound 6 (peptide)
# peptide: {DOTA-Ahx}-[dY][dW]NTF[azaGly]L[Api(1-amidino)]W-NH2
# SMILES: CC(C)C[C@H](NC(=O)NNC(=O)[C@H](Cc1ccccc1)NC(=O)[C@@H](NC(=O)[C@H](CC(N)=O)NC(=O)[C@@H](Cc1c[nH]c2ccccc12)NC(=O)[C@@H](Cc1ccc(O)cc1)NC(=O)CCCCCNC(=O)CN1CCN(CC(=O)O)CCN(CC(=O)O)CCN(CC(=O)O)CC1)[C@@H](C)O)C(=O)NC1(C(=O)N[C@@H](Cc2c[nH]c3ccccc23)C(N)=O)CCN(C(=N)N)CC1
# B28: Compound 236 (peptide)
# peptide: {DOTA-Ahx}-ENTF[azaGly]L[Apc(4-OMe)]F-NH2
# B29: Compound 237 (peptide)
# peptide: {DOTA}-ENTF[azaGly]L[Apc(4-OMe)]F-NH2
# B30: Compound 218 (peptide)
# peptide: {DOTA-APM}-ENT[beta‑(2-thienyl)alanine][azaGly]L[X2]W-NH2
# modifications: reading uncertain
# B31: Compound 203 (peptide)
# peptide: F[azaGly]L[X2]W-NH2
# modifications: not fully specified (N-terminus)
# Biological target: human kisspeptin receptor (KISS1R) (human), Q969F8
# Sequence (Q969F8 whole entry): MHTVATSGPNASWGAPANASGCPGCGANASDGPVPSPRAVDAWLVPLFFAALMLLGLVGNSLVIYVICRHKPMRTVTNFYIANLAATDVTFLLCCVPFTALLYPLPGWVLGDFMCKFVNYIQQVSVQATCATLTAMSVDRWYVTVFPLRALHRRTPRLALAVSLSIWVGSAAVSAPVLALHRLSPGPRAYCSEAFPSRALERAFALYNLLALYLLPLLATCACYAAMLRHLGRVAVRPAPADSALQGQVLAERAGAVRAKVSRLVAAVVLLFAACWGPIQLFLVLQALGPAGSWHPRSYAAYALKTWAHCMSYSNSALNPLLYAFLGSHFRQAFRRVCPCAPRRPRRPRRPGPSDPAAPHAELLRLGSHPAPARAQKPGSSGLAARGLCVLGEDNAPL
# Assay: radioligand competition, hKISS1R membranes; legend: A is <10 nM
row,Binder,Ki [nM]
1,B1,< 10
2,B2,< 10
3,B3,< 10
4,B4,< 10
5,B5,< 10
6,B6,< 10
7,B7,< 10
8,B8,< 10
9,B9,< 10
10,B10,< 10
11,B11,< 10
12,B12,< 10
13,B13,< 10
14,B14,< 10
15,B15,< 10
16,B16,< 10

row,Binder,Ki [nM]
1,B17,< 10
2,B18,< 10
3,B19,< 10
4,B20,< 10
5,B21,< 10
6,B22,< 10
7,B23,< 10
8,B24,< 10
9,B25,< 10
10,B26,< 10
11,B27,< 10
12,B28,< 10
13,B29,< 10
14,B30,< 10
15,B31,< 10
